We go through 6 molecules from patent publication US20260042848A1 (BIOLEGEND, published 2026).

Assay [1] deals with mGypa (mouse Glycophorin A) on transfected BA/F3 cells (mouse, UniProt P14220 1-168). As to the kind of experiment: flow cytometry on mGypa-transfected BA/F3 cells, anti-mouse IgG-APC secondary.
Assay [2] has as its target T1, native human AXL on non-transfected human cell lines (A-431, A-549, HeLa, MDA-MB-231, NCI-H1299) (human, UniProt P30530 26-894).
T1 construct: Endogenous AXL of carcinoma cell lines; also called human AXL receptor tyrosine kinase; AXL receptor
T1 sequence: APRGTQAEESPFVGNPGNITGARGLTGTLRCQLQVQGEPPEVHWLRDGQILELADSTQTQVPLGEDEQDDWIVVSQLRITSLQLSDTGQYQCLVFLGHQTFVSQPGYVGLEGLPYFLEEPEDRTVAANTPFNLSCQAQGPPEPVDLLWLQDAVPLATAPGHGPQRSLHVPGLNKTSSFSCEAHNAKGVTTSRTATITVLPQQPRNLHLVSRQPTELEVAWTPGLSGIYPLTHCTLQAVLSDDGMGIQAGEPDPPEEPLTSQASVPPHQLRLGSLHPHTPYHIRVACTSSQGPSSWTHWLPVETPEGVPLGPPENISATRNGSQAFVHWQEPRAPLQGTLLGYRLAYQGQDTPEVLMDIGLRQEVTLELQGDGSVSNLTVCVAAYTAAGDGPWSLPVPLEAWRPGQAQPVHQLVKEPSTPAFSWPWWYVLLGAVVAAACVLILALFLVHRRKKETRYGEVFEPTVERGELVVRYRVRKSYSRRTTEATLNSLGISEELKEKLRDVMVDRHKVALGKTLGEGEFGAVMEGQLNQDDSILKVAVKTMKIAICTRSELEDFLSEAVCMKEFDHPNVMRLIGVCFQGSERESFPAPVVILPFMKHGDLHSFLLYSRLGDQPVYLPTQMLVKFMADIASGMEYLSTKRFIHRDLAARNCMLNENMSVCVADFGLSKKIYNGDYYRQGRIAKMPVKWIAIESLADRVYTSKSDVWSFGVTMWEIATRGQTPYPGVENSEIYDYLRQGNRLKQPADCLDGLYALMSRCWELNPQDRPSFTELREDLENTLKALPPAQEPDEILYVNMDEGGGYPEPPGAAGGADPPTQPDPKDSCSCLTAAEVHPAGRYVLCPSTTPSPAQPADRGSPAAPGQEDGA
Description: flow cytometry, PE conjugate on A-431, A-549, HeLa, MDA-MB-231 and NCI-H1299 cells. The text has this:
In contrast, the cell lines used for FIGS. 2F-2G (TH-29 and Jurkat, respectively) are known to be negative for human AXL and were thus used as negative controls.
Once cells reached 80% confluency, cells were detached from the flask using 0.25% Trypsin-0.1% EDTA and suspended in cell staining buffer. […] Cells were washed with FACS buffer and analyzed on a BD Canto II flow cytometer.
For orientation: Flow cytometry measures light scatter and fluorescence of single cells or particles in a stream.

Assay [3] deals with T2, Human AXLΔcyto-IG (human AXL lacking the cytoplasmic domain) on transfected BA/F3 cells (human, UniProt P30530 26-472, limits assumed).
T2 construct: GFP is co-expressed from the vector; also called huAXLΔcyto-IG; human AXL transfected BA/F3 cells
T2 sequence: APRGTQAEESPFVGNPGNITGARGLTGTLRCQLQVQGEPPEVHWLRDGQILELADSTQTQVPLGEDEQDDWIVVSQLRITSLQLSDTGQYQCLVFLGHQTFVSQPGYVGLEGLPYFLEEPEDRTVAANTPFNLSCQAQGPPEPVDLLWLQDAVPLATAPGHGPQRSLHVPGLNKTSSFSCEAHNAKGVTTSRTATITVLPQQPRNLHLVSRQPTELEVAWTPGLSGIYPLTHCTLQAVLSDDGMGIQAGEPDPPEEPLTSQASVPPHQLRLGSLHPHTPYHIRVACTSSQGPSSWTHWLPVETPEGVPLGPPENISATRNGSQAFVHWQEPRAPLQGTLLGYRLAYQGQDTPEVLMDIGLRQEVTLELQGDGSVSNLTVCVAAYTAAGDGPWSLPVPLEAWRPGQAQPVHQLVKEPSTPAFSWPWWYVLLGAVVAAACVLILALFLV
Description: flow cytometry on Human AXLΔcyto-IG transfected BA/F3 cells, anti-mouse IgG-APC secondary. The method, then:
(§1) FIG. 1A depicts surface staining on BA/F3 cells transfected with human AXL, and FIG. 1B depicts surface staining on BA/F3 cells transfected with mGypa (mouse Glycophorin A) as a control. BA/F3 cells (IL-3 dependent mouse pro-B cell line) were used to eliminate the possibility of human proteins being expressed. The transfection efficiency was measured by GFP, which is used to visualize/identify cells that have been transfected and are expressing the vector. GFP (or FITC) on the x-axis identifies cells that are positive for GFP (i.e., cells that have been transfected). […] Cells were then washed and stained with a secondary antibody (anti-mouse IgG-APC).
(§2) In a first experiment, exemplary anti-human AXL antibodies were assessed on an IL-3 dependent murine pro B cell line (BA/F3, RIKEN CELL BANK, Cat #RCB4476), transfected with Human AXLΔcyto-IG (Ba/F3 cells were retrovirally transduced with human AXL lacking the cytoplasmic domain and GFP). […] Cells were then washed twice with FACS wash buffer and stained with anti-mouse IgG-APC secondary antibody for 15 minutes. Cells were washed with FACS buffer and analyzed on a BD Canto II and corresponding data was analyzed by FlowJo.

Assay [4] addresses T3, hAXL recombinant protein (Sino Biological, Catalog #10279-H08H) (human, UniProt P30530 26-449).
T3 construct: Bought soluble protein; also called human AXL recombinant protein; recombinant human AXL protein
T3 sequence: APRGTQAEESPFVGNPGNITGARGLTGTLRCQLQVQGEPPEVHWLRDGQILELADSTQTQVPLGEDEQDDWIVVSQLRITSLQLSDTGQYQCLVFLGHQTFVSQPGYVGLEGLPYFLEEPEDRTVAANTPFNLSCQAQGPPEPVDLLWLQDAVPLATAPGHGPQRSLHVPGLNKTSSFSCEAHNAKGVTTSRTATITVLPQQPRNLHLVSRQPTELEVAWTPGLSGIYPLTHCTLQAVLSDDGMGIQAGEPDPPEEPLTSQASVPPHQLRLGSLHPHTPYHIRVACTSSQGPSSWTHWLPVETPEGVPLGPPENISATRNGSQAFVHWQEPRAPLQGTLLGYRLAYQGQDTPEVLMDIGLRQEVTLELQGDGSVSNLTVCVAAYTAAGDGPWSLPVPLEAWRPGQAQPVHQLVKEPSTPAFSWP
As to the kind of experiment: pre-incubation of antibody with soluble recombinant human AXL, then flow cytometry on human AXL-transfected BA/F3 cells (FIG. 3B). On the procedure:
(§3) In each case, cell populations of interest were selected by setting and displaying gates (for visual comparison purposes) based on the corresponding isotype control.
(§4) PE conjugated mIgG1 and mIgG2a, or PU-IgG1 were used as controls. After incubation, 2×10⁶/100 μL of huAXLΔcyto-IG transfected BA/F3 cells were added to each tube, and cells were acquired on a BD Canto II and corresponding data was analyzed by FlowJo.

The target in assay [5] is T3, hAXL recombinant protein (Sino …). Description: pre-incubation of antibody with soluble recombinant human AXL, then flow cytometry on human AXL-transfected BA/F3 cells (FIG. 3D). The method, then:
as §3, §4

Assay [6] has as its target T2, Human AXLΔcyto-IG (human AXL lacking …). Description: flow cytometry on human AXL-transfected BA/F3 cells, anti-mouse IgG-APC secondary. On the procedure: as §1, §2

B1: AB3 (antibody, V domains shown)
VH: QIQLVQSGPELKKPGETVKISCKASGYTFTNYGMNWVKQAPGKGLKWMGWINTYIGEPTYADDFKGRFAFSLETSASTAYLQINNLKNEDMGTYFCARGTTFYAMDYWGQGTSVTVSS
VL: EIVLTQSPTTMAASPGEKITITCSASSSISSNYLHWYQQKPGFSPKLLIYRTSNLASGVPARFSGSGSGTSYSLTIGTMEAEDVATYYCQQGSSILTFGAGTKLELK
notes: Mouse hybridoma monoclonal; also called antibody 3; PE-AB3
On to B1, for which the binding result in assay [1] was “no binding (tested: 1 ug (printed 'lug'))”.

B2: AB5 (antibody, V domains shown)
VH: QIQLVQSGPELKKPGETVKISCKASGYTFTNYGMNWVKQAPGKGLKWMGWINTYTGEPTYADDFKGRFAFSLETSASTAYLQINNLKNEDMATYFCARGDRFYAMDYWGQGTSVTVSS
VL: EIVLTQSPTTMAASPGEKITITCSASSSISSNYLHWYQQKPGFSPKLLIYRTSNLASGVPTRFSGSGSGTSYSLTIGTMEAEDVATYYCQQGSSIFTFGSGTKLEIK
notes: Mouse hybridoma monoclonal; also called antibody 5; PE-AB5
Turning to B2, the binding result is listed as “binds” in assay [2], “binds” in assay [3], “no binding (tested: 1 ug (printed 'lug'))” in assay [1] and “binds” in assay [4].

B3: AB1 (antibody, V domains shown)
VH: DVQLQESGPDLVKPSQSLSLTCTVTGYSITSAYSWHWIRQFPGNKLEWMGYIHYSGSTNYNPSLKSRISITRDTSKNQFFLQLNSVTTEDTATYYCARSLWFYAMDYWGQGTSVTVSS
VL: DVQITQSPSYLAASPGETITINCRASKSISKYLAWYQEKPGKTNKLLIYSGSTLQSGIPSRFSGSGSGTDFTLTISSLEPEDFAMYYCQQHNEYPWTFGGGTKLEIK
notes: Mouse hybridoma monoclonal; also called antibody 1; PU-conjugated AB1
For the molecule B3, the results for the binding result in assay [1], in assay [5] and in assay [6] were “no binding (tested: 1 ug (printed 'lug'))”, “binds” and “binds”, respectively.

B4: AB2 (antibody, V domains shown)
VH: DVQLQESGPDLVKPSQSLSLTCTVTGYSITSAYSWHWIRQFPGNKLEWMGYIHYSGSTNYNPSLKSRISITRDTSKNQFFLQLNSVTTEDTATYYCARSLWFYAMDYWGQGTSVTVSS
VL: DIQMNQSPSSLSASLGDTITITCHASQNINVWLNWYQQKPGNIPKLLIYKASNLHTGVPSRFSGSGSGTGFTLTISSLQPEDIATYYCQQGQSYPLTFGGGTKLEIK
notes: Mouse hybridoma monoclonal; also called antibody 2; PE-AB2
As to B4, the binding result in assay [1] is “no binding (tested: 1 ug (printed 'lug'))”.

B5: AB4 (antibody, V domains shown)
VH: DVQLQESGPDLVKPSQSLSLTCTVTGYSITSAYSWHWIRQFPGNKLEWMGYIHYSGSTNYNPSLKSRISITRDTSKNQFFLQLSSVTTEDTATYYCARSLWFYAMDYWGQGTSVTVSS
VL: DVQITQSPSYLAASPGETITIKCRASKSISKYLAWYQEKPGKTNKLLIYSGSTLHSGIPSRFSGSGSGTDFTLTISSLEPEDFAMYYCQQHNEYPWTFGGGTKLEIK
notes: Mouse hybridoma monoclonal; also called antibody 4; PE-AB4
As for B5, the binding result in assay [2] is recorded as “binds”; in assay [3], “binds”; in assay [1], “no binding (tested: 1 ug (printed 'lug'))”; in assay [4], “binds”.

B6: AB6 (antibody, V domains shown)
VH: EVNLVESGGGLVQPGGSLKLSCATSGFTFSDYYMYWVRQTPEKRLEWVAYISNGGGSTYYPDTVKGRFTISRDNAKNTLYLQMSRLKSEDTAMYYCARLHFYAMDYWGQGTSVTVSS
VL: DIVMTQSHKFMSTSVGDRVSITCKASQDVSTAVAWYQQKPGQSPKLLIYWASTRHTGVPDRFTGSGSGTDYTLTISSVQAEDLALYYCQQHYNTPFTFGSGTKLEIK
notes: Mouse hybridoma monoclonal; also called antibody 6; PE-AB6
B6: the binding result in assay [2] is “binds”; in assay [3], “binds”; in assay [1] it was “no binding (tested: 1 ug (printed 'lug'))”; in assay [4], “binds”.
